We go through 6 molecules from article PMC10699845, “Light quality regulates plant biomass and fruit quality through a photoreceptor-dependent HY5-LHC/CYCB module in tomato”.

The chains are these.
B1: SlLHCB-m probe (dsDNA)
DNA 1: CTGCTTAGTTGTTTTTCTTGTAATCCTC
DNA 2: GAGGATTACAAGAAAAACAACTAAGCAG
B2: SlCYCB probe (dsDNA)
DNA 1: ACGTGTTTATTTTTTACTTTAAGAACGTG
DNA 2: CACGTTCTTAAAGTAAAAAATAAACACGT
B3: SlCYCB-m probe (dsDNA)
DNA 1: ACGTGTTTATTTTTTACTTTAAGATTTTG
DNA 2: CAAAATCTTAAAGTAAAAAATAAACACGT
B4: SlLHCA-m probe (dsDNA)
DNA 1: CAAATTGGTGACATTTTACATTCTGGCA
DNA 2: TGCCAGAATGTAAAATGTCACCAATTTG
B5: SlLHCB probe (dsDNA)
DNA 1: CTGCTTAGTTGTACGTCTTGTAATCCTC
DNA 2: GAGGATTACAAGACGTACAACTAAGCAG
B6: SlLHCA probe (dsDNA)
DNA 1: CAAATTGGTGACAACGTACATTCTGGCA
DNA 2: TGCCAGAATGTACGTTGTCACCAATTTG

The target in the data set is T1, SlHY5 (Solanum lycopersicum, UniProt Q9SM50 1-158).
T1 sequence: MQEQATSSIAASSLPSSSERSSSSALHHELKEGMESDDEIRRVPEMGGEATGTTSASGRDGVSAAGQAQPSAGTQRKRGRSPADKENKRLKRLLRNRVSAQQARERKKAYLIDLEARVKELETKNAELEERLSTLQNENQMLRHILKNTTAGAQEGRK
In words: EMSA; LightShift Chemiluminescent EMSA kit (Thermo 20148); buffer, salt, pH and temperature not stated. The settings on record: protein: recombinant, tags: His, chain copies: 2, blunt. On the technique in general: Mobility shift assays separate free from complexed probe on a gel.
Regarding B1, the binding result was “no binding”.

Consider B2, for which the binding result was “binds”.

In the case of B3, the binding result is “no binding”.

For B4, the binding result is listed as “no binding”.

B5: the binding result was “binds”.

As for B6, the binding result was “binds”.
